Key:
Conditions in all cases: label: 5'-FAM; single strand
[1] = target: T1, terminal deoxynucleotidyltransferase (TdT) (human, UniProt P04053 1-509); assay: MST; Mn2+; Kd treated by authors as estimate; MST with 5.0 mM Mg2+ (Mn2+ or Co2+ in other runs, concentration not given); buffer, salt, pH and temperature not in the material
[2] = target: T1, terminal deoxynucleotidyltransferase …; assay: MST; Co2+; Kd treated by authors as estimate; MST with 5.0 mM Mg2+ (Mn2+ or Co2+ in other runs, concentration not given); buffer, salt, pH and temperature not in the material
[3] = target: T1, terminal deoxynucleotidyltransferase …; assay: MST; 5.0 mM Mg2+; MST with 5.0 mM Mg2+ (Mn2+ or Co2+ in other runs, concentration not given); buffer, salt, pH and temperature not in the material

T1 sequence (P04053 whole entry): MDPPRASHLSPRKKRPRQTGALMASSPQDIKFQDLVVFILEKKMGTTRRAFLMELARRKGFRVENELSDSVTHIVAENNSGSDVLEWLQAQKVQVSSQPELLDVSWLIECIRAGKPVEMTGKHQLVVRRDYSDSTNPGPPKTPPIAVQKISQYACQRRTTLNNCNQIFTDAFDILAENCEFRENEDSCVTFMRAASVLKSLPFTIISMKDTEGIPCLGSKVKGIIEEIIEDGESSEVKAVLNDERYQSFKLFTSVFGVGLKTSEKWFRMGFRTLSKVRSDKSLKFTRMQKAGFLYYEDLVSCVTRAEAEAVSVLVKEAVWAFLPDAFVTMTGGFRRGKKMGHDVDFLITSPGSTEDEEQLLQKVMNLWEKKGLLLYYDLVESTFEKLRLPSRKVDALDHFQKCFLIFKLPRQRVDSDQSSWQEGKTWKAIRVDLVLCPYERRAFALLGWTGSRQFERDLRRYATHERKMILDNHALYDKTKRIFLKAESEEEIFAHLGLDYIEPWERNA

**Q.** GGAAGA (ssDNA) [DNA primer FAM-GGAAGA] was tested. Which Kd [1] did it give?
**A.** The Kd was 800 ± 200 nM.

**Q.** What about the Kd [2] of the same binder?
**A.** The Kd was 700 ± 100 nM.

**Q.** What about the Kd [3] of the same binder?
**A.** Its Kd is 4600 ± 100 nM.
